Measurements reported in IntAct's records for PubMed 24630722.

B1: Interferon-inducible protein AIM2 (Homo sapiens), O14862 (parent)
chain: MESKYKEILLLTGLDNITDEELDRFKFFLSDEFNIATGKLHTANRIQVATLMIQNAGAVSAVMKTIRIFQKLNYMLLAKRLQEEKEKVDKQYKSVTKPKPLSQAEMSPAASAAIRNDVAKQRAAPKVSPHVKPEQKQMVAQQESIREGFQKRCLPVMVLKAKKPFTFETQEGKQEMFHATVATEKEFFFVKVFNTLLKDKFIPKRIIIIARYYRHSGFLEVNSASRVLDAESDQKVNVPLNIIRKAGETPKINTLQTQPLGTIVNGLFVVQKVTEKKKNILFDLSDNTGKMEVLGVRNEDTMKCKEGDKVRLTFFTLSKNGEKLQLTSGVHSTIKVIKAKKKT

Variants of: B1
Conditions: with asc_human PYCARD

Variant | effect of a mutation on the interaction
L10A;L11A | disrupting interaction strength
D15R | disrupting interaction strength
R24E | disrupting interaction strength
F27G | disrupting interaction strength
G38E | decreasing interaction strength
K39E | decreasing interaction strength
Y74R | disrupting interaction strength
